Drawing on publication PMC6643046, this text covers stoichiometry N and Kd for 13 substances.

The target in data set [1] is His-PRDM9^Cst ZnF (Mus musculus castaneus (CAST/EiJ strain)). Briefly: native gel or EMSA; multimer assay I: construct bound to single-Hlx1 and tandem-Hlx1 DNA fragments of rising length, native 5% polyacrylamide gel; MW of the second complex (supershift) read from the regression of the lower shifts and divided by the monomer's MW; crude bacterial lysates or in vitro expressed protein.

Data set [2] deals with His-PRDM9^Cst ZnF2–6 (Mus musculus castaneus (CAST/EiJ strain)). The data set is described as above.
Data set [3] has the same target. Description: native gel or EMSA; multimer assay II: construct bound to a 75-bp DNA (Hlx1 for PRDM9^Cst, Pbx1 for PRDM9^Dom2), native gel; MW of the lower shift read against a ladder of free DNA (75-740 bp) and divided by the monomer's MW; four replicates; crude bacterial lysates or in vitro expressed protein. For orientation: Mobility shift assays separate free from complexed probe on a gel.

The target in data set [4] is MBP-ZnF-Cst (Mus musculus castaneus (CAST/EiJ)) (UniProt Q96EQ9). Description: EMSA. As to conditions: 10 mM Tris pH 7.5, 50 mM KCl, 50 uM ZnCl2, 0.05% NP-40 (1x TKZN), usually 50 ng/ul polydIdC, 60 min at RT, 5% native PAGE in 0.5x TBE.
Data set [5] deals with His-MBP-eYFP-PRDM9^Cst ZnF (Mus musculus castaneus (CAST/EiJ strain)). Description: native gel or EMSA; multimer assay II: construct bound to a 75-bp DNA (Hlx1 for PRDM9^Cst, Pbx1 for PRDM9^Dom2), native gel; MW of the lower shift read against a ladder of free DNA (75-740 bp) and divided by the monomer's MW; four replicates; crude bacterial lysates or in vitro expressed protein.

In data set [6] the target is His-MBP-eYFP-PRDM9^Dom2 ZnF (Mus musculus domesticus (C57BL/6J strain)). The data set is described as above.
For data set [7], the target named is His-PRDM9^Cst ZnF1-11 (Mus musculus castaneus (CAST/EiJ strain)). Description: native gel or EMSA; multimer assay I: construct bound to single-Hlx1 and tandem-Hlx1 DNA fragments of rising length, native 5% polyacrylamide gel; MW of the second complex (supershift) read from the regression of the lower shifts and divided by the monomer's MW; crude bacterial lysates or in vitro expressed protein.

Data set [8] concerns the target His-eYFP-PRDM9^Cst (full-length PRDM9^Cst with KRAB, SSXRD, PR/SET and ZnF domains) (Mus musculus castaneus (CAST/EiJ strain)). Description: native gel or EMSA; multimer assay II: construct bound to a 75-bp DNA (Hlx1 for PRDM9^Cst, Pbx1 for PRDM9^Dom2), native gel; MW of the lower shift read against a ladder of free DNA (75-740 bp) and divided by the monomer's MW; four replicates; crude bacterial lysates or in vitro expressed protein.

The target of data set [9] is His-PRDM9^Cst ZnF2-8 (Mus musculus castaneus (CAST/EiJ strain)). Briefly: native gel or EMSA; multimer assay I: construct bound to single-Hlx1 and tandem-Hlx1 DNA fragments of rising length, native 5% polyacrylamide gel; MW of the second complex (supershift) read from the regression of the lower shifts and divided by the monomer's MW; crude bacterial lysates or in vitro expressed protein.

Data set [10] has the same target. Description: native gel or EMSA; multimer assay II: construct bound to a 75-bp DNA (Hlx1 for PRDM9^Cst, Pbx1 for PRDM9^Dom2), native gel; MW of the lower shift read against a ladder of free DNA (75-740 bp) and divided by the monomer's MW; four replicates; crude bacterial lysates or in vitro expressed protein.
Data set [11] concerns the target His-eYFP-PRDM9^Cst ZnF2-11 (Mus musculus castaneus (CAST/EiJ strain)). Description: native gel or EMSA; multimer assay I: construct bound to single-Hlx1 and tandem-Hlx1 DNA fragments of rising length, native 5% polyacrylamide gel; MW of the second complex (supershift) read from the regression of the lower shifts and divided by the monomer's MW; crude bacterial lysates or in vitro expressed protein.

Data set [12] has the same target. Briefly: native gel or EMSA; multimer assay II: construct bound to a 75-bp DNA (Hlx1 for PRDM9^Cst, Pbx1 for PRDM9^Dom2), native gel; MW of the lower shift read against a ladder of free DNA (75-740 bp) and divided by the monomer's MW; four replicates; crude bacterial lysates or in vitro expressed protein.
The target of data set [13] is His-eYFP-PRDM9^Cst ZnF1-11 (Mus musculus castaneus (CAST/EiJ strain)). Description: native gel or EMSA; multimer assay I: construct bound to single-Hlx1 and tandem-Hlx1 DNA fragments of rising length, native 5% polyacrylamide gel; MW of the second complex (supershift) read from the regression of the lower shifts and divided by the monomer's MW; crude bacterial lysates or in vitro expressed protein.

Data set [14] shares this target. Description: native gel or EMSA; multimer assay II: construct bound to a 75-bp DNA (Hlx1 for PRDM9^Cst, Pbx1 for PRDM9^Dom2), native gel; MW of the lower shift read against a ladder of free DNA (75-740 bp) and divided by the monomer's MW; four replicates; crude bacterial lysates or in vitro expressed protein.
Data set [15] has as its target His-eYFP-PRDM9^Cst ZnF (Mus musculus castaneus (CAST/EiJ strain)). Description: native gel or EMSA; multimer assay I: construct bound to single-Hlx1 and tandem-Hlx1 DNA fragments of rising length, native 5% polyacrylamide gel; MW of the second complex (supershift) read from the regression of the lower shifts and divided by the monomer's MW; crude bacterial lysates or in vitro expressed protein.

Data set [16] deals with His-Halo-PRDM9^Cst ZnF1-11 (Mus musculus castaneus (CAST/EiJ strain)). Description: native gel or EMSA; multimer assay II as a2, with the semipure (ion-exchange) Halo-tagged construct; the shifted band was shown by MALDI-TOF mass spectrometry to hold mainly PRDM9 peptides.

The term stoichiometry N denotes a count of units in the complex or per binding partner. Consider His-PRDM9^Cst ZnF (domain or fragment), for which, in [1], the stoichiometry N stood at 3.
On to “His-PRDM9^Cst ZnF2–6 (domain or fragment)”, for which the stoichiometry N in [2] and in data set [3] was 2.9 each time.
The term Kd denotes the concentration at which binding is half-saturated. With “AACCCTGAGCTGCCTAAAGGTCAAATAGTGTGCAGACTTGGACCCTGCCCTTTCTTTAATAGTGTGCAGACTTGGACCCTGCCCTTTCTTTCTGCTGTGAATACCAGAGGCACA (double strand) [tandem-Hlx1 114 bp]”, in data set [4] (sum of lower shift and supershift, two complexes), the Kd is 35 nM.
Consider “His-MBP-eYFP-PRDM9^Cst ZnF (domain or fragment)”, for which the stoichiometry N in data set [5] was found to be 3.
As to “His-MBP-eYFP-PRDM9^Dom2 ZnF (domain or fragment)”, in data set [6], the stoichiometry N worked out at 3.
For “His-PRDM9^Cst ZnF1-11 (domain or fragment)”, in data set [7], the stoichiometry N came to 3.
For “His-eYFP-PRDM9^Cst (full-length PRDM9^Cst with KRAB, SSXRD, PR/SET and ZnF domains) (natural protein)”, the stoichiometry N in data set [8] was 3.
Regarding “His-PRDM9^Cst ZnF2-8 (domain or fragment)”, the stoichiometry N is 2.7 in [9] and 2.5 in data set [10].
On to “GTGGGAGGAGATGGTGGGTGAATAGTGTGCAGACTTGGACCCTGCCCTTTCTTTACGCATTCCACTAACCATGGG (double strand) [single-Hlx1 75 bp]”, for which the Kd in data set [4] (60 min incubation) turned out to be 48 nM.
With “His-eYFP-PRDM9^Cst ZnF2-11 (domain or fragment)”, the stoichiometry N in data set [11] amounted to 2.7; in data set [12], 3.
With “His-eYFP-PRDM9^Cst ZnF1-11 (domain or fragment)”, the stoichiometry N worked out at 3.8 in [13] and 3.5 in data set [14].
Consider “His-eYFP-PRDM9^Cst ZnF (domain or fragment)”, for which the stoichiometry N in data set [15] amounted to 3.
As to “His-Halo-PRDM9^Cst ZnF1-11 (domain or fragment)”, the stoichiometry N in data set [16] stood at 3.
